Test results published in patent US20240059752A1 (ZHEJIANG DOER BIOLOGICS CO., LTD., priority 2020, published 2024).
Where no end group is shown, it is not given here. [ ]: non-standard residue; d: D form. Aib = CC(C)(N)C(=O)O

Target: T1, hGIPR (Homo sapiens, UniProt P48546)
T1 construct: expressed in transfected cells
T1 sequence (P48546 22-466): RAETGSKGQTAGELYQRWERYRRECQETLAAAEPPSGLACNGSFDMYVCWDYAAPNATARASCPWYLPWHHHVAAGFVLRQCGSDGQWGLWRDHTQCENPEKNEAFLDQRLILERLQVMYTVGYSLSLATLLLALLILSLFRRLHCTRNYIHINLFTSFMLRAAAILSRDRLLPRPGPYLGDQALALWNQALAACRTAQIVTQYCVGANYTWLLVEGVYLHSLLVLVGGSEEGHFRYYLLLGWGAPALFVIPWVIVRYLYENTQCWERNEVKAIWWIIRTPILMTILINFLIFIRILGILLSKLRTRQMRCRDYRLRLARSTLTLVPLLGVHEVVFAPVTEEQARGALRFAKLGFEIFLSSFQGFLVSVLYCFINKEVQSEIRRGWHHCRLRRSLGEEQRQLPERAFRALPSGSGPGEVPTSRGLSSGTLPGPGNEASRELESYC
Experiment: GIPR agonist activity, luciferase reporter gene assay in CHO-K1 cells
Format: cell-based
Settings: % that of natural GIP peptide

P29: GCG analogue, SEQ ID No. 5, unconjugated backbone of P29F (H[Aib]QGTFTSDYSK[Aib]KDSQAAQDFVQWLLAGGPSSGAPPPS-NH2)
GIPR agonist activity relative to natural GIP peptide: about 2%
